Results taken from publication PMC3161730 (2012).
Read-outs that look alike come from different tables or passages of the source.

Columns and labels:
Experiment in all cases: plate-based fluorescence binding assay
TrkB [1] = biological target: T1, TrkB (Rattus norvegicus, UniProt Q63604)
T1 chain: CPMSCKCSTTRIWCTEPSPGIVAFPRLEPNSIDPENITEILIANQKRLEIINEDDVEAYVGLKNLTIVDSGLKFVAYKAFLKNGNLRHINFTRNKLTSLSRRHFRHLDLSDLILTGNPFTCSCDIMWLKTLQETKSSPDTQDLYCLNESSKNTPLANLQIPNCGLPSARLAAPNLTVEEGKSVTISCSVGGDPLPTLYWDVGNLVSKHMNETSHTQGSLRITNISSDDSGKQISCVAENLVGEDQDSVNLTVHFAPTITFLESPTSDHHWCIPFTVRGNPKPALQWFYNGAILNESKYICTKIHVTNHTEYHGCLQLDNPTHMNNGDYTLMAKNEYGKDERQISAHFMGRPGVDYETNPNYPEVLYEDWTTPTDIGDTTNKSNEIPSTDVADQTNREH

TrkB [2] = biological target: T1, TrkB
TrkB [3] = biological target: T1, TrkB
TrkB [4] = biological target: T1, TrkB

B1: BDNF (protein)
chain: HSDPARRGELSVCDSISEWVTAADKKTAVDMSGGTVTVLEKVPVSKGQLKQYFYETKCNPMGYTKEGCRGIDKRHWNSQCRTTQSYVRALTMDSKKRIGWRFIRIDTSCVCTLTIKRGR
TrkB [1]
  Kd: 0.00011 nM
TrkB [2]
  Kd: 0.00179 nM
TrkB [3]
  Kd: 3.37 nM
TrkB [4]
  Kd: 0.53 nM
